Measurements as given in patent US20150110788A1 (published 2015).

B1: HuGAL-F2 (antibody, V domains shown)
VH: EVQLVQSGAEVKKPGSSVKVSCKASGYTFTNYVINWVRQAPGQGLEWIGYNDPYNDVSKYNEKFKGRATITSDKSTSTAYMELSSLRSEDTAVYYCAKEGGGKYVYAMDSWGQGTTVTVSS
VL: DIQMTQSPSSLSASVGDRVTITCKASQSVSSDVGWYQQKPGKAPKLLIYSGSNRYSGVPSRFSGSGSGTDFTLTISSLQPEDFATYYCQQDYYSPWTFGQGTKVEIK
B2: X-Ava/F2 (bispecific antibody)
light 1: DIQMTQSPSSLSASVGDRVTITCKASQSVSSDVGWYQQKPGKAPKLLIYSGSNRYSGVPSRFSGSGSGTDFTLTISSLQPEDFATYYCQQDYYSPWTFGQGTKVEIKRTVAAPSVFIFPPSDEQLKSGTASVVCLLNNFYPREAKVQWKVDNALQSGNSQESVTEQDSKDSTYSLSSTLTLSKADYEKHKVYACEVTHQGLSSPVTKSFNRGEC
heavy 1: not shown
light 2: DIQMTQSPSSLSASVGDRVTITCSASQDISNYLNWYQQKPGKAPKVLIYFTSSLHSGVPSRFSGSGSGTDFTLTISSLQPEDFATYYCQQYSTVPWTFGQGTKVEIKSSASTKGPSVFPLAPSSKSTSGGTAALGCLVKDYFPEPVTVSWNSGALTSGVHTFPAVLQSSGLYSLSSVVTVPSSSLGTQTYICNVNHKPSNTKVDKRVEPKSC
heavy 2: not shown

Columns and labels:
FGF2 = FGF2 (UniProt P09038 143-288); experiment: ELISA
Sequence of FGF2 (P09038 143-288): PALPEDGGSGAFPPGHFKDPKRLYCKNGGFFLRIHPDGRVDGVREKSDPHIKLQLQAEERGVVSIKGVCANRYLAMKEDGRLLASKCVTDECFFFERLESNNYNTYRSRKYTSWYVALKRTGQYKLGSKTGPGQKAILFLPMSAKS

VEGF = target: T1, VEGF (UniProt P15692 27-191); experiment: ELISA
T1 chain: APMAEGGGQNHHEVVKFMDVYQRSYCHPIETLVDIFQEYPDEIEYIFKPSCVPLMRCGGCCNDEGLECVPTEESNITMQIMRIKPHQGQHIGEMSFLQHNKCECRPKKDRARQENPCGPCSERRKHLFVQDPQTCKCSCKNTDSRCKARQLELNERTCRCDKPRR

Binder | EC50 (FGF2) | EC50 (VEGF)
B1 | 0.1 nM | 
B2 | 0.35 nM | 1.43 nM
